In IntAct's records for PubMed 18957540:

Biological target: ntrk2_rat Ntrk2 (UniProt Q63604)
Sequence (Q63604 whole entry): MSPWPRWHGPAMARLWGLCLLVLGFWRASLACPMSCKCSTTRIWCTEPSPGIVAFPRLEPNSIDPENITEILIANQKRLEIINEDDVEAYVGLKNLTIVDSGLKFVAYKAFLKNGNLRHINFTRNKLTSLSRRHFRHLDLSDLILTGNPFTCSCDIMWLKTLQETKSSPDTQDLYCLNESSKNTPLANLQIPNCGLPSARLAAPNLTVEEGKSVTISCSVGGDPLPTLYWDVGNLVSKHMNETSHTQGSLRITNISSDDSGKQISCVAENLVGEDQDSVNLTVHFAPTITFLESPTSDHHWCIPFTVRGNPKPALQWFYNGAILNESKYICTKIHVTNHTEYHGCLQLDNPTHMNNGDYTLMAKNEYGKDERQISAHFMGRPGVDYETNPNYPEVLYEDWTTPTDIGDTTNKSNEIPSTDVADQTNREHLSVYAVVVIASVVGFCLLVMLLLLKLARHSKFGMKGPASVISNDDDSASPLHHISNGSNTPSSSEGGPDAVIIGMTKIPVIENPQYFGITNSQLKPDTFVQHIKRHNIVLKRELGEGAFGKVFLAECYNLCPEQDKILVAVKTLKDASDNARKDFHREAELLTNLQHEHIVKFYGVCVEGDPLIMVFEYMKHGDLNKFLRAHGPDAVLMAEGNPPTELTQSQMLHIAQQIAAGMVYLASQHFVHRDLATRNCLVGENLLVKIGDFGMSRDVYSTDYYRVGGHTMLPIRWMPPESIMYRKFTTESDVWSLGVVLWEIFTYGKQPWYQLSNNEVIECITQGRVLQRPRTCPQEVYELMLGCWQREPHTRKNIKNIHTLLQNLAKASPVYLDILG

Protein farnesyltransferase/geranylgeranyltransferase type-1 subunit alpha (Rattus norvegicus (Rat)) (from UniProt Q04631) Y166A
effect of a mutation on the interaction: decreasing interaction strength
